This is an account of results in publication PMC9405553, “G-Quadruplex Formed by the Promoter Region of the hTERT Gene: Structure-Driven Effects on DNA Mismatch Repair Functions”.

Data set [1] concerns the target T1, ngMutL (Neisseria gonorrhoeae (FA 1090 in Fig. …, UniProt Q5F8M6 1-658)).
T1 sequence: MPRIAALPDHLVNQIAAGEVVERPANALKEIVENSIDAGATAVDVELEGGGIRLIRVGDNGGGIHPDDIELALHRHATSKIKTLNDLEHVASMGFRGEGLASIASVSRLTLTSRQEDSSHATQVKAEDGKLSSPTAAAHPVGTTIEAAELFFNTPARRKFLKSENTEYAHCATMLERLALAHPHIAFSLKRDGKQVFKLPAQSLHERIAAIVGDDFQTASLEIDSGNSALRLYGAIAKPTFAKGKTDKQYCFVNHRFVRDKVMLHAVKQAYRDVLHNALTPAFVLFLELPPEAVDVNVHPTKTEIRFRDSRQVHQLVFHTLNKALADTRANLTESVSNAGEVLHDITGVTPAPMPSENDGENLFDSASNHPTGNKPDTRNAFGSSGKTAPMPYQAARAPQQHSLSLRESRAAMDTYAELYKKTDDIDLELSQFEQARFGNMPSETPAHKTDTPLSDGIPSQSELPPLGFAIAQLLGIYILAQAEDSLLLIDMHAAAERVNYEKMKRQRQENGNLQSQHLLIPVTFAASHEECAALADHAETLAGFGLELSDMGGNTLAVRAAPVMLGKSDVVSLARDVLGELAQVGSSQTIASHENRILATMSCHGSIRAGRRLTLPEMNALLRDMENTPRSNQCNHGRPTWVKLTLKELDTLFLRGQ
Description: EMSA; ecMutS: 20 mM HEPES-KOH pH 7.9, 5 mM MgCl2, 120 mM KCl, 0.5 mg/mL BSA, 1 mM ADP, 37 C 15 min, 5 nM DNA; ecMutL/ngMutL: 20 mM HEPES pH 8.0, 100 mM KCl, 0.5 mg/mL BSA, 1 mM DTT, on ice 10 min, 20 nM DNA; gels in TAE at 4 C. The note with it: protein: recombinant, tags: N-terminal His6, chain copies: 2. For orientation: Mobility shift assays separate free from complexed probe on a gel.

Data set [2] deals with ecMutL (Escherichia coli (K12 in Fig. S2 legend), UniProt P23367 1-615). The description is as above. The note with it: protein: recombinant, tags: N-terminal His6, chain copies: 2.
The target of data set [3] is T2, ecMutS (Escherichia coli, UniProt P23909 1-853).
T2 sequence: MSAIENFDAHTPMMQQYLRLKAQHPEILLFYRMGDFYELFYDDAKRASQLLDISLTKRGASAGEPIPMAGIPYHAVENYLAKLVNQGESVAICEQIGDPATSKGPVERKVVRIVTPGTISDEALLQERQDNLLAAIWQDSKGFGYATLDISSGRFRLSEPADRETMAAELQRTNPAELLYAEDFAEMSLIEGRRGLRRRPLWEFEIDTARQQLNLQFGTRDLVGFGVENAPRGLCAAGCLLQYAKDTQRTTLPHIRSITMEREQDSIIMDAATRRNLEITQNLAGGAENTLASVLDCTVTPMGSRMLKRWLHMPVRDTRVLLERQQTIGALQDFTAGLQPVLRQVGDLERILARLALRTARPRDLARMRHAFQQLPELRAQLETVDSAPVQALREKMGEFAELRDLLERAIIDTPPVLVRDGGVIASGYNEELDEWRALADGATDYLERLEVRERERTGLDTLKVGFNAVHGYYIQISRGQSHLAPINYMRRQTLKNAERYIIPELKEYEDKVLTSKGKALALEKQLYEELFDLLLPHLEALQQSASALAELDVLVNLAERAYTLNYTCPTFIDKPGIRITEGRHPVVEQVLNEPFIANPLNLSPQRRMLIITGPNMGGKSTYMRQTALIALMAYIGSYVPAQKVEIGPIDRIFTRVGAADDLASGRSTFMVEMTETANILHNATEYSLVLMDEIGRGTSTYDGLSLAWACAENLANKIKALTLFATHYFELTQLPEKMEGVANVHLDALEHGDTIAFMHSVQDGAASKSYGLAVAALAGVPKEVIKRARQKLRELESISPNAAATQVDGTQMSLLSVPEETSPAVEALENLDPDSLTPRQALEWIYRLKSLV
As to the kind of experiment: EMSA; 1 mM ADP, 5 mM MgCl2; ecMutS: 20 mM HEPES-KOH pH 7.9, 5 mM MgCl2, 120 mM KCl, 0.5 mg/mL BSA, 1 mM ADP, 37 C 15 min, 5 nM DNA; ecMutL/ngMutL: 20 mM HEPES pH 8.0, 100 mM KCl, 0.5 mg/mL BSA, 1 mM DTT, on ice 10 min, 20 nM DNA; gels in TAE at 4 C. To be noted: protein: recombinant, tags: N-terminal His6, chain copies: 2.

Data set [4] has as its target T2, ecMutS. As to the kind of experiment: competition; vs ds76-G/T-3', 65 nM ecMutS dimer; ecMutS: 20 mM HEPES-KOH pH 7.9, 5 mM MgCl2, 120 mM KCl, 0.5 mg/mL BSA, 1 mM ADP, 37 C 15 min, 5 nM DNA; ecMutL/ngMutL: 20 mM HEPES pH 8.0, 100 mM KCl, 0.5 mg/mL BSA, 1 mM DTT, on ice 10 min, 20 nM DNA; gels in TAE at 4 C. The note with it: protein: recombinant; tags: N-terminal His6; chain copies: 2; label: none; three stacked parallel intramolecular G4s.

Data set [5] deals with T2, ecMutS. Description: EMSA; ecMutS: 20 mM HEPES-KOH pH 7.9, 5 mM MgCl2, 120 mM KCl, 0.5 mg/mL BSA, 1 mM ADP, 37 C 15 min, 5 nM DNA; ecMutL/ngMutL: 20 mM HEPES pH 8.0, 100 mM KCl, 0.5 mg/mL BSA, 1 mM DTT, on ice 10 min, 20 nM DNA; gels in TAE at 4 C. The note with it: protein: recombinant; tags: N-terminal His6; chain copies: 2; text says bottom strand; blunt, one T:G mismatch at strand 1 position 22.

[6] abbreviates: text says 5' for ecMutS assays, single parallel intramolecular G4.
Setting [7] is: label: 5'-TAMRA, three stacked parallel intramolecular G4s.
Setting [8] is: label: 3'-TAMRA, three stacked parallel intramolecular G4s.

Sequence of ecMutL (P23367 whole entry): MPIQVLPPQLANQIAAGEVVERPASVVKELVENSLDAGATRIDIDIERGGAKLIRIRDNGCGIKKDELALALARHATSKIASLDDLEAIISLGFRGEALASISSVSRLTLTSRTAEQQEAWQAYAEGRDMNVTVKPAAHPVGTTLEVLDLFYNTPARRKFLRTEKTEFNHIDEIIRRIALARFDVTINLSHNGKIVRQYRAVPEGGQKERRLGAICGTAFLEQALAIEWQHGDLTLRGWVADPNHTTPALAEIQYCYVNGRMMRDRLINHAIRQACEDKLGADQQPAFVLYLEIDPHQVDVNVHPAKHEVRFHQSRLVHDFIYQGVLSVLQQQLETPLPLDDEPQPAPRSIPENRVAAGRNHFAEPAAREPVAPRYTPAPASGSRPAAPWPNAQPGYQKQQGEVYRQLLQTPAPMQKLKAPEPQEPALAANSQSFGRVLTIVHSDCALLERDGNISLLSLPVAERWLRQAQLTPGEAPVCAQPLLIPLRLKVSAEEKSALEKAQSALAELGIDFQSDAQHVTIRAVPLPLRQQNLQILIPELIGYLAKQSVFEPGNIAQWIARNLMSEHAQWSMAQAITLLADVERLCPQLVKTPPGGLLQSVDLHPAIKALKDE

B1: 95G4 (structured_DNA)
DNA: ATAGGACGCTGACACTGGTGCTTGGCAGCTGAGCCATATTTGGGTGGGTGGGTGGGTTGCTCGAGTAACGCTCATAGGATCCAAGCGCGAAAGGA
What is called Kd is the equilibrium constant for the complex coming apart. For the molecule B1, the results for the Kd in data set [1] (setting [6]), in data set [2] (setting [6]) and in data set [3] (setting [6]) were 41 ± 1 nM, 120 ± 20 nM and 38 ± 5 nM, respectively.

B2: WT-5' (structured_DNA)
DNA: GCCGCGGAAAGGAAGGGGAGGGGCTGGGAGGGCCCGGAGGGGGCTGGGCCGGGGACCCGGGAGGGGTCGGGACGGGGCGGGGTCCGCGCGGAGGAG
In the case of B2, the Kd was determined as 115 ± 30 nM in data set [2] (setting [7]) and 15 ± 6 nM in data set [3] (setting [7]).

B3: G242,243A-3' (structured_DNA)
DNA: GCCGCGGAAAGGAAGGGGAGGGGCTGGGAGGGCCCGGAGGGGGCTGGGCCGGAAACCCGGGAGGGGTCGGGACGGGGCGGGGTCCGCGCGGAGGAG
In the case of B3, the Kd in data set [1] (setting [8]) turned out to be 51 ± 2 nM.

B4: G228A (unlabeled) (structured_DNA)
DNA: GCCGCGGAAAGGAAGGGGAGGGGCTGGGAGGGCCCGGAAGGGGCTGGGCCGGGGACCCGGGAGGGGTCGGGACGGGGCGGGGTCCGCGCGGAGGAG
Usually IC50 stands for the point on the concentration scale where inhibition reaches its midpoint. The term Ki denotes a dissociation constant, usually derived from enzyme kinetics or from competition with a known ligand. In the case of B4, in data set [4], the IC50 was determined as 35 ± 4 nM and the Ki is 31 ± 6 nM.

B5: WT-3' (structured_DNA)
DNA: GCCGCGGAAAGGAAGGGGAGGGGCTGGGAGGGCCCGGAGGGGGCTGGGCCGGGGACCCGGGAGGGGTCGGGACGGGGCGGGGTCCGCGCGGAGGAG
As to B5, the equilibrium dissociation constant (Kd) in data set [1] (setting [8]) is 49 ± 3 nM.

B6: G250A-5' (structured_DNA)
DNA: GCCGCGGAAAGGAAGGGGAGGGGCTGGGAGGGCCCGGAGGGGGCTGGGCCGGGGACCCGGAAGGGGTCGGGACGGGGCGGGGTCCGCGCGGAGGAG
Turning to B6, the Kd in data set [2] (setting [7]) came out at 130 ± 30 nM; in data set [3] (setting [7]) it was 30 ± 7 nM.

B7: G250A-3' (structured_DNA)
DNA: GCCGCGGAAAGGAAGGGGAGGGGCTGGGAGGGCCCGGAGGGGGCTGGGCCGGGGACCCGGAAGGGGTCGGGACGGGGCGGGGTCCGCGCGGAGGAG
B7: the Kd in data set [1] (setting [8]) is 42 ± 2 nM.

B8: G228A-5' (structured_DNA)
DNA: GCCGCGGAAAGGAAGGGGAGGGGCTGGGAGGGCCCGGAAGGGGCTGGGCCGGGGACCCGGGAGGGGTCGGGACGGGGCGGGGTCCGCGCGGAGGAG
In the case of B8, the values for the Kd in data set [2] (setting [7]) and in data set [3] (setting [7]) were 170 ± 40 nM and 24 ± 6 nM, respectively.

B9: WT (structured_DNA)
DNA: GCCGCGGAAAGGAAGGGGAGGGGCTGGGAGGGCCCGGAGGGGGCTGGGCCGGGGACCCGGGAGGGGTCGGGACGGGGCGGGGTCCGCGCGGAGGAG
In the case of B9, in data set [4], the IC50 came to 32 ± 3 nM and the Ki came to 28 ± 5 nM.

B10: G242,243A (unlabeled) (structured_DNA)
DNA: GCCGCGGAAAGGAAGGGGAGGGGCTGGGAGGGCCCGGAGGGGGCTGGGCCGGAAACCCGGGAGGGGTCGGGACGGGGCGGGGTCCGCGCGGAGGAG
As to B10, in data set [4], the IC50 is 28 ± 7 nM and the Ki was 25 ± 8 nM.

B11: G242,243A-5' (structured_DNA)
DNA: GCCGCGGAAAGGAAGGGGAGGGGCTGGGAGGGCCCGGAGGGGGCTGGGCCGGAAACCCGGGAGGGGTCGGGACGGGGCGGGGTCCGCGCGGAGGAG
For the molecule B11, the Kd in data set [2] (setting [7]) is 110 ± 20 nM; in data set [3] (setting [7]) it was 27 ± 4 nM.

B12: G228A-3' (structured_DNA)
DNA: GCCGCGGAAAGGAAGGGGAGGGGCTGGGAGGGCCCGGAAGGGGCTGGGCCGGGGACCCGGGAGGGGTCGGGACGGGGCGGGGTCCGCGCGGAGGAG
B12: the Kd in data set [1] (setting [8]) came out at 44 ± 3 nM.

B13: G250A (unlabeled) (structured_DNA)
DNA: GCCGCGGAAAGGAAGGGGAGGGGCTGGGAGGGCCCGGAGGGGGCTGGGCCGGGGACCCGGAAGGGGTCGGGACGGGGCGGGGTCCGCGCGGAGGAG
Turning to B13, in data set [4], the IC50 came to 40 ± 15 nM and the Ki is 35 ± 15 nM.

B14: ds76-G/T-3' (dsDNA)
DNA 1: ATAGGACGCTGACACTGGTGCTTGGCAGCTGAGCCATATGCTCGAGTAACGCTCATAGGATCCAAGCGCGAAAGGA
DNA 2: TCCTTTCGCGCTTGGATCCTATGAGCGTTACTCGAGCATATGGCTCAGCTGCCAGGCACCAGTGTCAGCGTCCTAT
As to B14, in data set [5], the Kd stood at 35 ± 3 nM.

B15: ds96/96* (dsDNA)
DNA 1: ACCTGGATGCCTATAGGGCGAATTGGGTACCGCTGAATTGCACTGGACTTGATCCTCGATGATCCTAAGCTAAGCTTCAGCTCCAGCCTAAGCCTG
DNA 2: CAGGCTTAGGCTGGAGCTGAAGCTTAGCTTAGGATCATCGAGGATCGAGTCCGGTGCAATTCAGCGGTACCCAATTCGCCCTATAGGCATCCAGGT
As for B15, in data set [1] (label: 3'-TAMRA on strand 1, blunt), the Kd was 125 ± 5 nM.
